From publication PMC10572626, “NMR-Based Characterization of the Interaction between Yeast Oxa1-CTD and Ribosomes” (International Journal of Molecular Sciences, 2023) come the findings set out here.

Data set [1] addresses C-terminal domain of yeast S. cerevisiae mitochondrial oxidase assembly protein 1 (Oxa1-CTD, W320-K402) (S. cerevisiae) (UniProt P39952). The experiment in a line: MST; Oxa1-CTD (20 µM, labelled with red fluorescent dye) kept constant; E. coli 70S or BSA titrated 1.21-20,000 nM; 20 mM HEPES pH 7.2, 75 mM NaCl, 20 mM MgCl2; three repeats.
Data set [2] concerns the molecule itself. The experiment in a line: SEC; Superdex 75 increase 10/300 GL in NMR buffer (20 mM HEPES pH 7.2, 75 mM NaCl, 20 mM MgCl2, 5 mM β-mercaptoethanol); oligomeric state inferred from elution volumes against standards of the column's manual. (In gel filtration, larger molecules generally elute earlier.)

As for E. coli 70S ribosome (complex), the Kd – broadly, a measure of binding affinity in units of concentration – in data set [1] was found to be 450 nM.

B1: C-terminal domain of yeast S. cerevisiae mitochondrial oxidase assembly protein 1 (Oxa1-CTD, W320-K402) (domain or fragment, UniProt P39952 320-402, looked up)
chain: WVRSKLKITEVAKPRTPIAGASPTENMGIFQSLKHNIQKARDQAERRQLMQDNEKKLQESFKEKRQNSKIKIVHKSNFINNKK
modifications: red fluorescent dye (Monolith NT protein labeling kit) in the MST assay; 15N-labelled in the NMR titration
notes: Oxa1, yeast S. cerevisiae, C-terminal domain, residues W320 to K402 (pI = 10.5); cloned into pET-14b with an N-terminal 6x His-tag and a thrombin cleavage site; also called C-terminus of Oxa1; pET14b-Oxa1-CTD (W320-K402)
Take B1: the stoichiometry N (in general, the number of molecules, sites or subunits per partner or assembly) in data set [2] was 2.
